Results on one molecule are retold here after patent US20160002326A1 (AbbVie / Abbott, published 2016).

One test concerns the target T1, human TNF-α (human, UniProt P01375 77-233).
T1 construct: also called hTNF-α; hTNF
Briefly: assay not stated; rounded figure in the dose-selection text, assay not stated.

Another test addresses T2, RANK ligand (UniProt O14788 140-317).
T2 sequence (looked up): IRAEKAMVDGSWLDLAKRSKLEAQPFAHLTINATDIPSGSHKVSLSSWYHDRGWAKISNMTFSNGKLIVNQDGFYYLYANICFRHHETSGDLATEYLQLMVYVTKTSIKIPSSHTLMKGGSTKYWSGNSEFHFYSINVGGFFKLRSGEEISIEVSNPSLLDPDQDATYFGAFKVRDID
Briefly: direct ELISA. (An ELISA detects its analyte on a solid surface through an enzyme-linked reagent.)

Another test addresses T3, TWEAK (UniProt O43508 94-249, limits assumed).
T3 sequence (looked up): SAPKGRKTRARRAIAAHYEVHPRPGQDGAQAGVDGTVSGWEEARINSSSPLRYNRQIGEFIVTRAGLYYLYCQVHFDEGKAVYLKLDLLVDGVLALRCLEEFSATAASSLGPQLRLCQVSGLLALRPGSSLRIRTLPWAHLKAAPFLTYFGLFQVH
Briefly: direct ELISA.

A further test concerns the target T4, lymphotoxin a (UniProt P01374 35-205).
T4 construct: also called lymphotoxin alpha
T4 sequence (looked up): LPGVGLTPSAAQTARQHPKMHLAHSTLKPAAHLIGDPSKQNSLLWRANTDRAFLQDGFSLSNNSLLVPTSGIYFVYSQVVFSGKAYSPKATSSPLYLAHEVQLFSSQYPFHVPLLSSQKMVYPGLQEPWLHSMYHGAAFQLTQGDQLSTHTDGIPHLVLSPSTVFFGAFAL
The experiment in a line: direct ELISA.

A further test has as its target T5, CD30 ligand (UniProt P32971 63-234).
T5 sequence (looked up): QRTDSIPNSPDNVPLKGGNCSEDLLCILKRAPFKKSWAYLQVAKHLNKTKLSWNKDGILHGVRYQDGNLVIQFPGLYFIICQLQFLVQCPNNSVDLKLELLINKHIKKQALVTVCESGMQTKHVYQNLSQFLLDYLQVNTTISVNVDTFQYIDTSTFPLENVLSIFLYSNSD
Briefly: direct ELISA.

In the next test the target is T6, Fas ligand (UniProt P48023 134-281, limits assumed).
T6 sequence (looked up): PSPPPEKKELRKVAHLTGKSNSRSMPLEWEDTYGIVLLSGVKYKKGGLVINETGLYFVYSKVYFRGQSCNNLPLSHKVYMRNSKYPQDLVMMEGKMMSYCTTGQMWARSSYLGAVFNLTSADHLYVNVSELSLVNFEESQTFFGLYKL
Briefly: direct ELISA.

Another test addresses T7, TL1A (UniProt O95150 72-251).
T7 sequence (looked up): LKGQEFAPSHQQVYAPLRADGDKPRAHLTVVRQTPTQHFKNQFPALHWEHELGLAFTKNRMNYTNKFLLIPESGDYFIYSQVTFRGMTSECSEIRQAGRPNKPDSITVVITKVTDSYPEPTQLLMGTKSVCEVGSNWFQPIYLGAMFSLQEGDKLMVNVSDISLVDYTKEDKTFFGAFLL
Briefly: direct ELISA.

Another test has as its target BAFF (UniProt Q9Y275 134-285). The experiment in a line: direct ELISA.
For another test, the target named is T8, IL-17D (UniProt Q8TAD2 16-202, limits assumed).
T8 sequence (looked up): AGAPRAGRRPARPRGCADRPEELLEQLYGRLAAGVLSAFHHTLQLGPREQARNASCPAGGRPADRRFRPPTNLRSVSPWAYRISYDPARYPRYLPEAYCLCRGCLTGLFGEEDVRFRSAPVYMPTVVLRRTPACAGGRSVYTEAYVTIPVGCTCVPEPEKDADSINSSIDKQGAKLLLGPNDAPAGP
Briefly: direct ELISA.

The target in another test is T9, IL-17E (IL-25) (UniProt Q9H293 33-177).
T9 sequence (looked up): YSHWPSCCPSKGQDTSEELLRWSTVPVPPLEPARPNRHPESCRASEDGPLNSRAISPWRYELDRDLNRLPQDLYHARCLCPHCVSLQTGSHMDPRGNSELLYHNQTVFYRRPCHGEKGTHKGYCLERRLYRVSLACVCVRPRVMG
Briefly: direct ELISA.

The target of the next test is T10, IL-17C (UniProt Q9P0M4 19-197).
T10 sequence (looked up): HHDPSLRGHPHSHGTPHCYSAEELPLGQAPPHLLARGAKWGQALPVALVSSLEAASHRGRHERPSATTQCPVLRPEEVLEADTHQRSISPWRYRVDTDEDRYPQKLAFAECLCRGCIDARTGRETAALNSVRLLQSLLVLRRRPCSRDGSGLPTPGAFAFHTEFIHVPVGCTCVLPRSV
The experiment in a line: direct ELISA.

In a further test the target is T11, EDA-A2 (UniProt Q92838-3 245-389, limits assumed).
T11 sequence (looked up): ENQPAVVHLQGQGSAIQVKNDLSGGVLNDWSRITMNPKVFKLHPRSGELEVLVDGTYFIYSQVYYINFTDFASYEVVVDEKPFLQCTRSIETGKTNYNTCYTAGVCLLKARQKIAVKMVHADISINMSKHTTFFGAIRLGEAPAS
Briefly: direct ELISA.

The target of the next test is T12, GITR ligand (UniProt Q9UNG2 52-177).
T12 sequence (looked up): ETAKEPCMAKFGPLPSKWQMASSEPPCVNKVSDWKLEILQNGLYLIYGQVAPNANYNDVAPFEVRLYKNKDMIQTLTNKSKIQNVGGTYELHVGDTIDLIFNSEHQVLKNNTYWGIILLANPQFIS
Briefly: direct ELISA.

The next test addresses LIGHT (UniProt O43557 74-240, limits assumed). The experiment in a line: direct ELISA.
Another test concerns the target T13, APRIL (UniProt O75888 105-250).
T13 sequence (looked up): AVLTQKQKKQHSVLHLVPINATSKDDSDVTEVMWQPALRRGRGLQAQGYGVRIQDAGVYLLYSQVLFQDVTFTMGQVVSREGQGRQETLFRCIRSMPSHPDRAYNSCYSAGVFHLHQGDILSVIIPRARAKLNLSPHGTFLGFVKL
Briefly: direct ELISA.

The next test has as its target T14, IL-17B (UniProt Q9UHF5 21-180).
T14 sequence (looked up): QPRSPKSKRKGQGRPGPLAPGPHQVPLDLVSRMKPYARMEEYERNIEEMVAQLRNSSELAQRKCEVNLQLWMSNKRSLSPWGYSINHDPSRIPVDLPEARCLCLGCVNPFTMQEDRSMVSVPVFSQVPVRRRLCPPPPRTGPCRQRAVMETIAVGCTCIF
Briefly: direct ELISA.

Broadly, the Kd is a measure of binding affinity in units of concentration.

T1 sequence (P01375 77-233 limits assumed): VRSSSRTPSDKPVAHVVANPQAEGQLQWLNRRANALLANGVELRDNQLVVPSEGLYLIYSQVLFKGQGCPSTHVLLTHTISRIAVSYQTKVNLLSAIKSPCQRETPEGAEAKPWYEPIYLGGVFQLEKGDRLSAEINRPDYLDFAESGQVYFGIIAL
LIGHT, sequence (O43557 74-240 limits assumed): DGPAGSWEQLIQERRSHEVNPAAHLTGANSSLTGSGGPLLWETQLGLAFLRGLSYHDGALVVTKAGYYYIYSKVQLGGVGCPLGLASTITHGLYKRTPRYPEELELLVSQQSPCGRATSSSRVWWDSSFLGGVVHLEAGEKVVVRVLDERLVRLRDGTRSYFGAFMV
BAFF, sequence (Q9Y275 134-285 limits assumed): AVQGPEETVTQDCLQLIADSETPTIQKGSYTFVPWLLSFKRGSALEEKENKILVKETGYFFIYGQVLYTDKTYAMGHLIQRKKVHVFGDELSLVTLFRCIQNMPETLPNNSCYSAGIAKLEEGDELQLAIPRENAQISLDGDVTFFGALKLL

B1: ABBV-257 anti-human TNF and IL-17 DVD-Ig binding protein (bispecific antibody, human IgG1, kappa, L234A L235A)
heavy: EVQLVQSGAEVKKPGASVKVSCKASGYTFANYGIIWVRQAPGQGLEWMGWINTYTGKPTYAQKFQGRVTMTTDTSTSTAYMELSSLRSEDTAVYYCARKLFTTMDVTDNAMDYWGQGTTVTVSSGGGGSGGGGSEVQLVQSGAEVKKPGSSVKVSCKASGYTFTDYEIHWVRQAPGQGLEWMGVNDPESGGTFYNQKFDGRVTLTADESTSTAYMELSSLRSEDTAVYYCTRYSKWDSFDGMDYWGQGTTVTVSSASTKGPSVFPLAPSSKSTSGGTAALGCLVKDYFPEPVTVSWNSGALTSGVHTFPAVLQSSGLYSLSSVVTVPSSSLGTQTYICNVNHKPSNTKVDKKVEPKSCDKTHTCPPCPAPEAAGGPSVFLFPPKPKDQLMISRTPEVTCVVVDVSHEDPEVKFNWYVDGVEVHNAKTKPREEQYNSTYRVVSVLTVLHQDWLNGKEYKCKVSNKALPAPIEKTISKAKGQPREPQVYTLPPSREEMTKNQVSLTCLVKGFYPSDIAVEWESNGQPENNYKTTPPVLDSDGSFFLYSKLTVDKSRWQQGNVFSCSVLHEALHNHYTQKSLSLSPGK
light: DIQMTQSPSSLSASVGDRVTITCRASQDISQYLNWYQQKPGKAPKLLIYYTSRLQSGVPSRFSGSGSGTDFTLTISSLQPEDFATYFCQQGNTWPPTFGQGTKLEIKRGGSGGGGSGDIQMTQSPSSLSASVGDRVTITCRASSGIISYIDWFQQKPGKAPKRLIYATFDLASGVPSRFSGSGSGTDYTLTISSLQPEDFATYYCRQVGSYPETFGQGTKLEIKRTVAAPSVFIFPPSDEQLKSGTASVVCLLNNFYPREAKVQWKVDNALQSGNSQESVTEQDSKDSTYSLSSTLTLSKADYEKHKVYACEVTHQGLSSPVTKSFNRGEC
modifications: N-linked glycans on the heavy chain at the asparagine commonly modified on IgG1 antibodies (fucosylated biantennary oligosaccharides with 0, 1 or 2 galactose residues)
notes: It says the constant region carries L234A, L235A and also T250Q and M428L; also called Anti-IL-17/TNF DVD-Ig Protein
B1 showed a Kd with human TNF-α of 5 pM. The binding result with RANK ligand, with TWEAK, in the test with lymphotoxin a, with CD30 ligand, with Fas ligand and with TL1A was “no binding” throughout. For the same molecule, the binding result with BAFF, with IL-17D, with IL-17E (IL-25), with IL-17C, in the test with EDA-A2 and in the test with GITR ligand was “no binding” in each case. The binding result in the test with LIGHT, in the test with APRIL and in the test with IL-17B was “no binding” in each case.
